# Measurements from US20090098111A1.
# Biological target: Xatr-XatripΔN222-FLAG complex (Xenopus laevis)
# Assay: cell-based or functional assay
# Xatr-XatripΔN222-FLAG complex (Xenopus laevis), sequence (Q5EGL8 whole entry, stated change not applied, one chain of several): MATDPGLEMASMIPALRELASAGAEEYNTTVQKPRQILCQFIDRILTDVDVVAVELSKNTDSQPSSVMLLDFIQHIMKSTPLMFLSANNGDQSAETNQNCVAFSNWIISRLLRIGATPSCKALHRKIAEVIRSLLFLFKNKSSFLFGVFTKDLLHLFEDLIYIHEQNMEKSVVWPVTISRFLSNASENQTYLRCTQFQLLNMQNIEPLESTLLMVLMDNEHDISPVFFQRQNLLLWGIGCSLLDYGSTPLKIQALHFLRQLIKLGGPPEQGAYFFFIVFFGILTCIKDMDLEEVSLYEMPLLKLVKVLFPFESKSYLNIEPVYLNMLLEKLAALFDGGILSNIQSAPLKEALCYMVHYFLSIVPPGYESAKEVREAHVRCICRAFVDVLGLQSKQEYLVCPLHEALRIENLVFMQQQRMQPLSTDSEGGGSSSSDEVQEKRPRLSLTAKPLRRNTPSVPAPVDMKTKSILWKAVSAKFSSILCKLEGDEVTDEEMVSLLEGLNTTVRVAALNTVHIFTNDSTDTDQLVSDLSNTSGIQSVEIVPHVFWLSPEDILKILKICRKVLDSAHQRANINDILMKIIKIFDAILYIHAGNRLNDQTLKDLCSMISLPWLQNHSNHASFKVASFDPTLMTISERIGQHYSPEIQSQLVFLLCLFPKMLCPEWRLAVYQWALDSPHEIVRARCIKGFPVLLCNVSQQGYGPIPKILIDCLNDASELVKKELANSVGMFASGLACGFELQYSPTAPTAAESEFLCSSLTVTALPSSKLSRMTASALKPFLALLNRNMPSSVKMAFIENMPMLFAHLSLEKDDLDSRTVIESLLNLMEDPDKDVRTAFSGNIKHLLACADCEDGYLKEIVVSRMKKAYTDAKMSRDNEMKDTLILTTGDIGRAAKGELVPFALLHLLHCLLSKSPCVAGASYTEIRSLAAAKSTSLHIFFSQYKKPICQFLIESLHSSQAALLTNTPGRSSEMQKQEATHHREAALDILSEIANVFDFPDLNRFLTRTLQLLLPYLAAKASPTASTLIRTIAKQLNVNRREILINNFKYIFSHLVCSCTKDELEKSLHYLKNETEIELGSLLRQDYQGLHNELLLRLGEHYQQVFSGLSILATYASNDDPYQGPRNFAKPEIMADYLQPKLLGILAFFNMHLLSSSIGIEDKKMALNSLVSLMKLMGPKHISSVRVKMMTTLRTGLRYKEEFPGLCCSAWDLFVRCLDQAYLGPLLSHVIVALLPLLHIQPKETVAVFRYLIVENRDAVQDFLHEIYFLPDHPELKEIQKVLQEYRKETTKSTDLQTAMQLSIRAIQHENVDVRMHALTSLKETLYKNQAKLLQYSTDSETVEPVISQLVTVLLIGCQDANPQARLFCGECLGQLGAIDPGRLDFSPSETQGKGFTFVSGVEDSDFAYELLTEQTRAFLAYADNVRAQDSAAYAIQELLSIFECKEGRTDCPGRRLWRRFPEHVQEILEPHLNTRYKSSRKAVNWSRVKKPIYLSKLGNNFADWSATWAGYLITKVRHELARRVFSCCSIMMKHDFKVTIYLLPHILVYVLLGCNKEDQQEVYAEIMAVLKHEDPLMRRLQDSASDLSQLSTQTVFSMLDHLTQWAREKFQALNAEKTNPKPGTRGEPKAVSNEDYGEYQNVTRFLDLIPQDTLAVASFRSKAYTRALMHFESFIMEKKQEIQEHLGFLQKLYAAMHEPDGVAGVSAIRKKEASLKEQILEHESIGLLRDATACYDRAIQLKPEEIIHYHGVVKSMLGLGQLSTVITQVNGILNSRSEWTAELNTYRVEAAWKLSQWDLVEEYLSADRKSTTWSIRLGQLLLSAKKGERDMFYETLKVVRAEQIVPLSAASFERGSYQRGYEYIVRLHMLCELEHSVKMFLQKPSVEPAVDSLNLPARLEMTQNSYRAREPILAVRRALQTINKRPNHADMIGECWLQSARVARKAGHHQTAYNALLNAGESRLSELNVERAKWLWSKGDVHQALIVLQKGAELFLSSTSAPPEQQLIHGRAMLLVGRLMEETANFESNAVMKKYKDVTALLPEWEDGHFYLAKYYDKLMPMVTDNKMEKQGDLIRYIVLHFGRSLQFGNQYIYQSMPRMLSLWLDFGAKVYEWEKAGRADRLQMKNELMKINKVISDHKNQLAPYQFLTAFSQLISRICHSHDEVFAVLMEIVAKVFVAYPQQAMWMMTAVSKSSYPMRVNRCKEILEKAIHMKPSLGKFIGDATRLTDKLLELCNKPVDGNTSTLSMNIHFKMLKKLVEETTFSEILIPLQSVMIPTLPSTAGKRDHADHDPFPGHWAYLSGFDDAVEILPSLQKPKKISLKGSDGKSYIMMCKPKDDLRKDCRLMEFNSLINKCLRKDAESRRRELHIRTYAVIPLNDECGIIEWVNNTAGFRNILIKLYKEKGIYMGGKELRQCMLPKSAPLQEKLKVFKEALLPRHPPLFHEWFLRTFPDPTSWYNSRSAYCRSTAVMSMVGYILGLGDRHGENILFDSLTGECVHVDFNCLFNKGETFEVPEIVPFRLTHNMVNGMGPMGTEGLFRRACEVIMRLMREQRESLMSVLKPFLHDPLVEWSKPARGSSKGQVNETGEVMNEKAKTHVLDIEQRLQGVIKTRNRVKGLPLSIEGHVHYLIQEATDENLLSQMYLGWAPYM
substance,measurement,value
His6-XtopBP1 (full-length) (from UniProt Q800K6 1-1513),half-maximal induction of kinase activity,10 to 15 µg/mL
